# Assay: soluble on expression in E. coli; label from the status in PepcDB or PDB records
row,Sequence,soluble on expression in E. coli
1,GMSADIVFDRGSPSDIDEIKTFTSNTWKVGYYTDLYSKLADTGTMDDYVDKVIERWVNDGSVYVLRVSGRPVATIHMEKLPDGSVMLGGLRVHPEYRGSRLGMSIMQETIQFLRGKTERLRSAVYSWNEPSLRLVHRLGFHQVEEYPIYTFQGGSTAVPALKPVNERYAGRWRCFFIDWKYMCSDDPDIIHEEYSNNLIVDGSTFVYFDIYEGGIDLFVNDSDDASSFIEKYRSMNGRITFYVRKALANGLPYVPASSLTVWEYRY,soluble
2,GMSEENKIGTYQFVAEPFHVDFNGRLTMGVLGNHLLNCAGFHASDRGFGIATLNEDNYTWVLSRLAIELDEMPYQYEKFSVQTWVENVYRLFTDRNFAVIDKDGKKIGYARSVWAMINLNTRKPADLLALHGGSIVDYICDEPCPIEKPSRIKVTSNQPVATLTAKYSDIDINGHVNSIRYIEHILDLFPIELYQTKRIRRFEMAYVAESYFGDELSFFCDEVSENEFHVEVKKNGSEVVCRSKVIFE,soluble
3,GMSKIFNEELAVIEAAAIAYLTAFNRADIPAVIATYTDDGVLMGPGRPAAVGKDELAEVYLSVFETVGFDMAYEIKEVVQTSADWAFVRSATEGTETNKATGVVTPAAYQELFLLRKSATGSWQTARYCTSKISP,soluble
4,GMSTPSPALFFNTVNAYQRSAAIKAAVELNVFTAISQGIESSQSLAQKCQTSERGMRMLCDYLVIIGFMTKQAEGYRLTSDSAMFLDRQSKFYVGDAIEFLLSPMITNGFNDLTAAVLKGGTAISSEGTLSPEHPVWVQFAKAMSPMMANPAQLIAQLVNENKIEPLKVLDISASHGLFGIAVAQHNPNAEIFGVDWASVLEVAKENARIQGVASRYHTIAGSAFEVDYGNDYDLVLLPNFLHHFDVATCEQLLRKIKTALAVEGKVIVFDFIPNSDRITPPDAAAFSLVMLATTPNGDAYTFAEYESMFSNAGFSHSQLHSLPTTQQQVIVAYK,soluble
5,GMTAVFRNTVLVRFKHCDAAGIVFYPRYFEMLNDFIEDWFAQALDWPFDAMHGAGQAGVPTADLHCRFVAPSRLGETLTRELRVVKLGQSSFTVQVRFMGPDSGLRLEVTQRLVCVDTDKIAPRPLPDPVRQAMATYVDETLAATGSPGL,soluble
6,GMTGKISALDLASGELSEPTKAYFAKCEEKLGLVPNVLKAYAFDDKKLRAFTDIYNDLMLGESGLSKLDREMIAVAVSSINHCYYCLTAHGAAVRQLSGDPALGEMLVMNFRAADLSPRQTAMLEFAVKLTEEPAKIVEADRAALRKAGFSDRDIWDIASTAAFFNMSNRVAAAIDMRPNDEYHAMAR,soluble
7,GMTGLSQSQASPMQIQPGNAAFNPWTDAALDTIRDVNQALTLYAEMRVVPAHHDAFLAAIDTVSAKLRVLPGFLSLALKQMSGDSTMVKNYPETYKGVLATAYLDGVAAGTQPYFYNLFVRFADGRAARAAGFEALFETHIHPLLHAMAPRGGDGPELLAYRAVLQSVVAGDRHAIYRGAEEIRSFLRRPVELPERETVTVENHVMVPEDKHAAWEPQVAILLQVAQDTFEPQDEPSGVGLPGARDNRYYRKALSTEILRNAHADGGLRAYIMHGVWESVWDHENSHLDPRFLAAAGPVGAAAVVGPVEPFYLTRRLVVAD,soluble
8,GMTKAREFLGTGWKFPVAAGADGAMVLSSAEEDIAESIRIILGTARGERVMRPDFGCGIHDRVFSVINTTTLGLIENEVKEALILWEPRIELLSVTASPREAAEGRLLIDIEYRVRSTNTRFNLVYPFYLKESA,soluble
9,GMTSPSIESGARERTRRAILDAAMLVLADHPTAALGDIAAAAGVGRSTVHRYYPERTDLLRALARHVHDLSNAAIERADPTSGPVDAALRRVVESQLDLGPIVLFVYYEPSILADPELAAYFDIGDEAIVEVLNRASTERPEYPPGWARRVFWALMQAGYEAAKDGMPRHQIVDAIMTSLTSGIITLPRT,soluble
10,GMYLKELSMMPGVSGDEGKVRDFIKSKIEGLVDNLYTDVLGNLIALKRGRDSSKKLLVSAHMDEVGFVVSKIEKDGKVSFLPVGGVDPRILPGKVVQVKNLKGVIGYRPIHLQRDEENTPPRFENLRIDFGFSSADEAKKYVSIGDYVSFVSDYIEKNGRAVGKAFDDRAGCSVLIDVLESGVSPAYDTYFVFTVQEETGLRGSAVVVEQLKPTCAIVVETTTAGDNPELEERKWATHLGDGPAITFYHRGYVIPKEIFQTIVDTAKNNDIPFQMKRRTAGGTDAGRYARTAYGVPAGVISTPARYIHSPNSIIDLNDYENTKKLIKVLVEEGKIVEVVS,soluble
11,GPGSMADEEDYDFEVNKKETDKIERPERLIEVLQHDTNQTLTEEMVEHAQAVLDFMPVEYTYKDVAAKLKCRLDGAYGGTWHVIVGKHFGANVTNDDDTLINMKINGVYFLAMRSGPPERPQESAENEAVTAE,soluble
12,GPGSMADILKSVKRIVVKVGSSILVDNQEIAAHRIEALCKFIADLQTKYEVILVTSGAVAAGYTQKEMDKAYVPNKQALASMGQPLLMHMYYTQLQKHGILCAQMLLAAYDLDSRKRTMNAHNTIEVLISHKVIPIINENDATALHELVFGDNDRLSALVAHHFKADLLVILSDIDGYYTENPRASTDAKIRSVVHELSPDDLVAEATPNNPFATGGIVTKLQAAQFLLERGGKMYLSSGFHLEKAREFLFGGSHEIGTLFYPRGSSS,soluble
13,GPGSMALGSGIGLVPMWSSCPSVNPPTFPKGGIEILRQSLEAQEEVERTFREREAGHIECLNFKKSLRHLLRKQNERREELQLVEQRASERTQALLDELLIVVRERLKAMSPEGYQSITFDNGDMYEGNWKSCRMHGTGVMRRVADNDIYEGEWFFGVRNGNGMCCSPNFGTLYSGKWLAGKWHGRGELAEPEGLYIGDFVDGQIRGYGEYLYREGYAYKGDWVNGVYEGSGTFFYTNGARYEGQWRNGYEHGRGTMTYYNGDVYTGDWCNGRKHGTGTYTSKLLQYEGGWSSGAVHGIGKCTYADGSMYKGSWCRGLYDGDGEFVSQDKKCSYKGEFRGGKRCGRGVYQCGEVEYSGDWLDDRRHGVGEIKTRDGRVFRGTWSHDEPHCEVVPGCNLEGTSLSYCGGRGAPIAPEEPDPVLNMRLGLPDEVIDCMADAPT,not soluble
14,GPGSMANDYLFTSESVSEGHPDKVADQISDAILDAILAQDKYSRVAAETLCNTGLVVLAGEITTTANIDYIQIARDTIKRIGYDNTDYGIDYRGCAVLVAYDKQSPDIAQGVDRAHDNNLDQGAGDQGLMFGYACDETPELMPLPIHLSHRLVERQANLRRDGRLPWLRPDAKSQVTVRYVDGKPHSIDTVVLSTQHAPEIDLPALREAVIEEVIKPTLPADLIKGDIKFLVNPTGRFVIGGPQGDCGLTGRKIIVDTYGGAAPHGGGAFSGKDPSKVDRSAAYAGRYVAKNIVAAGLASRALIQVSYAIGVAEPTSVMVNTFGTGRVSDETITKLVREHFDLRPKGIIQMLDLLRPIYEKTAAYGHFGREEPEFSWEAADKALALAEAAGVEPAVQVA,soluble
15,GPGSMASHAEGRLLRRSVPYVESWIAELTPKPVAPAAGAAPAPKGKAKGGTASTGTENATPMSRCCFAVGKVLEVSRHPESEKLYIEKIDLGAELNMLSNNEPRTILSGLQEFVKEEDFVNRLVLVIANLEPRKIGGIPSAGMVLCASTGEDPHDPASAGQGERKVVLLDIPEGTAVGERVVFEGHDMPYEPVLKKKLAKNFEEVMKDVRSSADGEVCWQGKPFQTSAGVIKASLCNARIS,soluble
16,GPGSMCVCASDCVTPMKRDTKGKLSYDMEPAEHRLSSSRSSSCNVVMTAADELAMQINDCRSLFPCIDAGSAVASIRPTSPSGRTVVARVPWTKSTGTTQTPAPEPTRCAVEVRFGYAEGFVCDEKVYEALLPLLLENGLQGAACVVDSDVSDS,not soluble
17,GPGSMDSINSVTFEWVRAGPAYTLDGPHVYHSGCLGSYQPAIGGLEMPAGHGKYFYEIQTSDTRCKVGVCTEDAFLSNVNLGDVELHAAQPSSSLNSRLSEANCCLFNCLTCAVEVNGVEVRSLWRLLVPSAGARFGFLVNTDEGAVQLYVNGEYQGLIADTATGFKGKKLRPCIALDAPPTCGAGAEANKSSASVVPPRKIIASTA,not soluble
18,GPGSMDVVATPLWSSPPCGSPMAGTVSSGNPLFHVGRSYYRSAAKAYNMTRYVVESLKLDETVLATSMAYWHTFVDRLELRKFDEIVLSASCVFLASKVEHYKVRLNRVIALVFEISGEGDEMEGWRRMLLEMELLVCHTLGFNFQIIHPMKRIVELVPEDHTQVLECAHRLFLLSFMTPLCVRVPADEVAEALVYLAADGAGQLEPYAGKFRCDAVERREGIINVMIDALAVMRKNTSLPKVDDMIVARRKRMREQESFRPSVAHSSGGTGSLDVTPSAFLVE,soluble
19,GPGSMEARGNVDGEKFRSINTLRTRFPALTVSDARALLERHNWNVAIAGAEAERGERQRTKADSANYFVGGGDKGSGQQVMAPSGESVSDRSGEIASGSGVHSMIDRIFRKAEVEGAKASGGDGGSGVEDNEPRAFYGRGQRLGYTANPSPYVASTLRAERSVCITVYRDGFEVDSNGFVPLNSDEGRQFVEAMDKGYVPPSLAAKYPNTDLTVNLRDCLQVDYVPPSYIAFQGDGHRLAAPSSTAASSAAPANAQASPATAGRSGTPAYDPSRTVEVRSDEATSFVVLLNTRGERRQVQVNPERHTVDDLYSLAHAYQPELQNFILVERGMPPRRLEASTRSQTIAQAKLSRAVVALQQM,soluble
20,GPGSMEGPPPVCFRQCSFTYGAEPSTLHISQQCFSDYVWILVTEDDTCVPGVVLRFDPHDAGPCVGCESLNNLPSLPCEYLLGVRDHALTNILSSAIAHAIQSVGEQRPLLLCVSAAKTAKRLQTTEERMSFVRMVREKVVALAKGETC,not soluble
21,GPGSMFRRLSSSARAVVAARFYTPPEGLKKLYASDFENSKYPLNIVPSDSVLFAKFLYKAAEEKGNFDNILSDFQKIAAAASKLPIFWERTAVVEKIPEFKQLSEPTFFTLVWMQNNGMLELIQEVAEVYETFVNAKQKKAVAKIFVAPGGEKNVEEARRVAEELHKGLKELADYTLVLKTVVDRTIVKGFAVELAGQYVNKAEGQQKQAGRADEVDYTNLPAPKPQKTVWDDNIETEVLRKYLDGLSQYDMEEAKYGV,not soluble
22,GPGSMGNGCCGCCDAKPDYKLGRPLVSGKTTPCFNDGRLFKIVKGDIWYFYNDTQDYQMKVTADFGNGSNIVAMSDTELVRKNDSGACTATVSVFPLETKAMVQTKEVNGFNVKYSGIAFTDADRQKLRQKAAAQVSADLAEMRKLRERNPKVNNQNRLLKVARGKGKMYVDTSFPPTSQSLIRSGIDSDPDACLKRPETIAWRRPEDFLPKKWHPKIRLFGNISPKDISQGQLGDCYYLCALAALAEHDAAIKGIFKNHHGCCIRSQERKHGAWRVNLNISGWWRTIIIDSYLPTVQLLPVFARNRNHPNELWVSFAEKAYAKVFGSYQAIVAGYPWQALEDLTGFPAYNFGNMWRTAQTDTETRKKLFDSLHRWNKKYLICIATPSNGALKMAGKQLSANQWEALFEKAGLRIGHAYSVLDVRHFPLHRLCMLKIRNPWGSHVEWSGDWGDDSPLWNRYPFIKLACRPEKKADGIFWMEWRDVSKFFDSGSVCFRRGHWFRSWYDYRVLGSFEDLVCDTALLIIVNKTSQFPAYISLHQKDCRGLATSDPDSKYACVMISISEGDINGSQQKVVANSSENPEEPSTEYLFQESRSVSLYYKFTKGHKYLVIPRRMKSSTGNNVPKKKYVIALRTQTKVSSEDVVVNIVRLDKNNAVFKNVASFDAGTPTSLNTLYQIKDGNNVFRTYRSDNLRKGKKQHNAEFELVM,not soluble

# Source: the DeepSol protein solubility set
